From the Human Domainome abundance scans (Beltran et al. 2025)
± gives the uncertainty stated by the source.

B1: CD2-associated protein, residues 271 to 331; numbered along this chain, Q9Y5K6 (parent)
chain: KEYCRTLFAYEGTNEDELTFKEGEIIHLISKETGEAGWWRGELNGKEGVFPDNFAVQINEL

Variants of: B1
Assay: abundance fitness (aPCA) (normalised: wild type 0, dead -1); higher = more abundant; growth selection in yeast, the domain comes from the species named
Settings: Homo sapiens

Abundance fitness, by site and new letter:
T19: D -0.499 ± 0.1 | Q -0.536 ± 0.21 | Y -0.422 ± 0.078 | V -0.66 ± 0.074 | R -0.283 ± 0.07 | C -0.287 ± 0.064 | H -0.252 ± 0.082 | G -0.431 ± 0.13 | I -0.693 ± 0.093 | F -0.592 ± 0.073 | N -0.153 ± 0.058 | W -0.555 ± 0.19 | A -0.249 ± 0.08 | E -0.696 ± 0.21 | M -0.598 ± 0.16 | L -0.814 ± 0.11 | K -0.436 ± 0.17
N14: T -0.041 ± 0.072 | H -0.107 ± 0.074 | L -0.4 ± 0.072 | K -0.033 ± 0.088 | R -0.061 ± 0.066 | W -0.239 ± 0.11 | S -0.024 ± 0.061 | G -0.087 ± 0.072 | D -0.107 ± 0.1 | V -0.421 ± 0.089 | P -0.756 ± 0.12 | Y -0.38 ± 0.14 | Q -0.012 ± 0.081 | F -0.336 ± 0.13 | M -0.172 ± 0.081 | E -0.159 ± 0.092 | I -0.202 ± 0.11 | C 0.029 ± 0.097
K31: M -0.013 ± 0.25 | E -0.111 ± 0.49 | F -0.848 ± 0.086 | P -0.703 ± 0.17 | C -0.562 ± 0.095 | D -0.717 ± 0.14 | S -0.571 ± 0.068 | T -0.024 ± 0.062 | W -0.862 ± 0.47 | G -0.522 ± 0.11 | V -0.313 ± 0.073 | N -0.575 ± 0.069 | Q -0.52 ± 0.14 | L -0.476 ± 0.064 | A -0.635 ± 0.11 | R 0.017 ± 0.089 | Y -0.634 ± 0.076 | I -0.672 ± 0.091
D16: C -0.128 ± 0.078 | F -0.002 ± 0.073 | N 0.014 ± 0.086 | P -0.738 ± 0.086 | E -0.018 ± 0.054 | K 0.026 ± 0.087 | S -0.003 ± 0.048 | R -0.062 ± 0.044 | A -0.061 ± 0.055 | G 0.051 ± 0.048 | Q -0.105 ± 0.072 | Y -0.072 ± 0.092 | M -0.194 ± 0.057 | L -0.091 ± 0.04 | I -0.699 ± 0.19 | H -0.008 ± 0.098
T33: I -0.099 ± 0.14 | M -0.468 ± 0.096 | P -0.242 ± 0.083 | C -0.163 ± 0.11 | A -0.198 ± 0.083 | G -0.076 ± 0.056 | H -0.209 ± 0.12 | N -0.333 ± 0.16 | L -0.349 ± 0.061 | K -0.332 ± 0.1 | D -0.282 ± 0.12 | E -0.471 ± 0.085 | F -0.32 ± 0.13
E15: T -0.27 ± 0.09 | C -0.123 ± 0.11 | V -0.329 ± 0.11 | S -0.138 ± 0.07 | L -0.208 ± 0.061 | F -0.43 ± 0.11 | D 0.027 ± 0.18 | A -0.072 ± 0.073 | Y -0.261 ± 0.16 | W -0.343 ± 0.069 | G -0.107 ± 0.061 | M -0.23 ± 0.1 | K -0.268 ± 0.11 | R -0.12 ± 0.048 | P -0.027 ± 0.082 | N -0.184 ± 0.16 | H -0.004 ± 0.18 | I -0.281 ± 0.13
I26: T -0.605 ± 0.082 | G -0.856 ± 0.13 | P -0.803 ± 0.14 | L -0.214 ± 0.056 | C -0.46 ± 0.19 | W -0.599 ± 0.12 | H -0.537 ± 0.17 | D -0.7 ± 0.38 | V -0.153 ± 0.062 | E -0.725 ± 0.12 | R -0.829 ± 0.09 | S -0.76 ± 0.078 | Q -0.734 ± 0.15 | M -0.555 ± 0.14 | A -0.82 ± 0.14
I25: R -0.372 ± 0.053 | W -0.75 ± 0.14 | P -0.794 ± 0.19 | Q -0.234 ± 0.087 | N -0.451 ± 0.097 | H -0.448 ± 0.16 | C -0.485 ± 0.1 | G -0.602 ± 0.07 | D -0.285 ± 0.11 | T -0.175 ± 0.072 | E -0.471 ± 0.084 | M -0.064 ± 0.063 | K -0.35 ± 0.1 | F -0.302 ± 0.076 | S -0.448 ± 0.071 | V -0.083 ± 0.053
G23: N -0.106 ± 0.12 | V -1.13 ± 0.2 | C -0.45 ± 0.093 | F -0.863 ± 0.39 | R -0.57 ± 0.063 | E -0.564 ± 0.17 | L -0.941 ± 0.12 | T -0.424 ± 0.14 | H -0.644 ± 0.16 | K -0.646 ± 0.15 | A -0.727 ± 0.13 | Y -1.09 ± 0.33 | W -0.532 ± 0.088 | Q -0.726 ± 0.15 | M -0.958 ± 0.23 | S -0.465 ± 0.082 | I -0.613 ± 0.16 | P -0.892 ± 0.2
F20: E -0.91 ± 0.13 | D -0.523 ± 0.14 | I -0.492 ± 0.13 | H -0.603 ± 0.18 | T -0.854 ± 0.15 | A -0.808 ± 0.089 | M -0.714 ± 0.11 | W -0.887 ± 0.12 | Y -0.713 ± 0.14 | S -0.564 ± 0.083 | C -0.793 ± 0.13 | K -0.665 ± 0.097 | N -0.551 ± 0.12 | Q -0.629 ± 0.11 | P -0.893 ± 0.15 | L -0.709 ± 0.078
L28: D -0.82 ± 0.26 | C -0.676 ± 0.078
